Square brackets hold non-standard residues; d marks the D form. Peptide text beside a SMILES is read from it. * marks the point of attachment. DOTA = O=C(O)CN1CCN(CC(=O)O)CCN(CC(=O)*)CCN(CC(=O)O)CC1; Cha = N[C@@H](CC1CCCCC1)C(=O)O; Nle = CCCC[C@H](N)C(=O)O; Ahx = NCCCCCC(=O)O
Columns and labels:
in vivo = assay: in vivo; parameters: species or system Balb/c mice; conditions: Balb/c, mouse, iv
Procedure: Approval for the animal protocol used in this study was obtained from the Institutional Animal Care and Use Committee. Animal studies were conducted according to the international regulations governing the safe and proper use of laboratory animals. In vivo biodistribution were performed on healthy Balb/c mice (n = 3–5 in each group, body weight 19–22 g) at 1 and 2 h after intravenous injection of the HPLC-purified radiopeptide (100 μL, 15–20 μCi, total peptide dose ~ 20 ng) via the lateral tail vein. The mice were sacrificed by cervical dislocation at specified time points and blood samples were withdrawn with a syringe from the heart. Major organs such as lungs, stomach, spleen, pancreas, intestines, liver, kidneys, etc. were isolated, weighed, and radioactivity in each organs and tissues were measured using a γ-scintillation counter. Uptake of radioactivity in the tissues and organs was expressed as the percent injected dose per gram (% ID/g) of tissue/organ, which was calculated by comparison with standard solutions representing 10% of the injected dose per animal. For the clearance studies, radioactivity in the urine with bladder and feces is expressed as the percent of the injected dose per tissue (% ID). Values are expressed as mean ± SD for a group of 3-5 animals at each time point.

[1] = biological target: T1, BN/GRP receptor-positive PC3 human prostate cancer cells (Homo sapiens, UniProt P30550); assay: Saturation binding assay on PC3 cells; conditions: n = 3-5 experiments
T1 construct: BN/GRP receptor-positive MDA-MB-231, MCF7, T47D human breast cancer, and PC3 human prostate cancer lines; host or cells: MDA-MB-231, MCF7, T47D (human breast cancer), PC3 (human prostate cancer); intact cells
Procedure: The cell binding of ^68Ga-radiolabeled peptides into BN/GRP receptor-positive MDA-MB-231, MCF7, T47D human breast cancer, and PC3 human prostate cancer lines (American Type Culture Collection, Rockville, MD, USA) was performed according to the method described previously. In brief, ∼ 300,000 cells (in 300 μL in low-serum media) were incubated with various amounts of radiopeptides, ranging between 0.1 and 25 nM of peptide (prepared from the serial dilutions of HPLC-purified radiopeptides), in duplicate for 60 min at room temperature. The initial concentrations of ^68Ga-labeled peptides were determined according to a well-established HPLC technique with simultaneous detection by UV absorbance. As the amount of BN peptide in the reaction mixture was too small to be detected by UV absorption at 220 nm, the radioactive peptide chromatograms from the HPLC analysis were compared (with UV chromatograms) with those of known concentrations of the corresponding nonradioactive peptides for the mass determination. Incubation was terminated by dilution with cold saline (300 μL) and the cells were pelleted by centrifugation. The cell pellets was then rapidly washed with cold saline to remove any unbound peptide and centrifuged to collect supernatants. Radioactivity in the cell pellet and the washings was measured in a γ-counter. Non-specific binding was determined in the presence of ~ 200-fold molar excess of unlabeled BN peptide. Specific binding is calculated by subtracting the non-specifically bound radioactivity from that of the total binding. The dissociation constant (Kd) was calculated using a plot of cell bound activity versus the concentration of the radioligand using GraphPad Prism software (GraphPad Software Inc., San Diego, CA, USA).

MDA-MB-231 tumors = assay: in vivo; type: in vivo, nude mice; conditions: for Radioactivity in Urine + bladder / Uptake in Blood / Uptake in Intestines (measured without their contents) / Uptake in Kidneys / Uptake in Liver / Uptake in Lungs / Uptake in Muscle / Uptake in Pancreas / Uptake in Spleen / Uptake in Stomach: female, nude, mouse, in vivo; for Uptake in Tumor: nude mice with MDA-MB-231 tumors, mean ± SD, n = 3-5
Procedure: BN/GRP receptor-positive MDA-MB-231 and PC3 cell lines (American Type Culture Collection, Rockville, USA) were grown as monolayers at 37 °C in a humidified atmosphere containing RPMI-1640 culture media with 10% fetal bovine serum (FBS) in tissue culture flasks. Twenty-four hours prior to conducting the tumor implantation, the media was replaced with RPMI-1640/10% FBS. The cells were grown to 80-90% confluency and harvested by trypsinization. After centrifugation, about 50 million cells were suspended in 1 mL media for implantation into mice. To prepare cells for inoculation, MDA-MB-231 or PC3 cancer cells with media were centrifuged, the media decanted, and the cell pellet was mixed with phosphate-buffered saline (PBS) to reach a concentration of approximately 5 million cells per 100 μL PBS. Human MDA-MB-231 breast cancer xenografts female mouse models were used for in vivo tumor-targeting experiments. For the implantation of tumor xenografts, approximately five million MDA-MB-231 cells in suspension of 100 μL sterile PBS were injected subcutaneously into the left thigh of each mouse. Tumors were allowed to grow for 4-6 weeks by which tumors had reached weights of 200-300 mg. After sufficient growth of tumors, animals were injected with 20-30 μCi of the radiotracers and the animals were sacrificed at specified time points. The uptake of ^68Ga-radiolabeled peptides in the tumors and other major body organs was calculated by γ-counting as described above.

CCCC[C@H](NC(=O)[C@H](Cc1c[nH]cn1)NC(=O)[C@H](CC1CCCCC1)NC(=O)[C@@H](NC(=O)[C@H](C)NC(=O)[C@H](Cc1c[nH]c2ccccc12)NC(=O)[C@H](CCC(N)=O)NC(=O)[C@H](CS)NC(=O)CNC(=O)CNC(=O)CCCCCNC(=O)CN1CCN(CC(=O)O)CCN(CC(=O)O)CCN(CC(=O)O)CC1)C(C)C)C(=O)N[C@@H](CCSC)C(N)=O [^68Ga-DOTA-Ahx-BN Tris-, metal not drawn] ({DOTA-Ahx}-GGCQWAV[Cha]H[Nle]M-NH2)
%ID excreted in Feces (in vivo; 1 h): 0.83 ± 0.19 %ID
%ID excreted in Urine (in vivo; 1 h): 74.0 ± 8.03 %ID
Uptake in Blood (in vivo; 1 h): 0.29 ± 0.05 %ID/g
Uptake in Bone (in vivo; 1 h): 0.17 ± 0.03 %ID/g
Uptake in Intestines (measured without their contents) (in vivo; 1 h): 0.67 ± 0.12 %ID/g
Uptake in Kidneys (in vivo; 1 h): 2.89 ± 0.41 %ID/g
Uptake in Liver (in vivo; 1 h): 1.12 ± 0.30 %ID/g
Uptake in Lungs (in vivo; 1 h): 0.36 ± 0.10 %ID/g
Uptake in Pancreas (in vivo; 1 h): 2.0 ± 0.27 %ID/g
Uptake in Spleen (in vivo; 1 h): 0.09 ± 0.01 %ID/g
Uptake in Stomach (in vivo; 1 h): 1.71 ± 0.19 %ID/g
%ID excreted in Feces (in vivo; 2 h): 0.69 ± 0.10 %ID
%ID excreted in Urine (in vivo; 2 h): 69.0 ± 5.15 %ID
Uptake in Blood (in vivo; 2 h): 0.17 ± 0.02 %ID/g
Uptake in Bone (in vivo; 2 h): 0.09 ± 0.01 %ID/g
Uptake in Intestines (measured without their contents) (in vivo; 2 h): 0.43 ± 0.09 %ID/g
Uptake in Kidneys (in vivo; 2 h): 1.63 ± 0.24 %ID/g
Uptake in Liver (in vivo; 2 h): 0.53 ± 0.09 %ID/g
Uptake in Lungs (in vivo; 2 h): 0.22 ± 0.05 %ID/g
Uptake in Pancreas (in vivo; 2 h): 1.25 ± 0.13 %ID/g
Uptake in Spleen (in vivo; 2 h): 0.06 ± 0.0 %ID/g
Uptake in Stomach (in vivo; 2 h): 0.48 ± 0.06 %ID/g
Bmax (apparent number of binding sites per cell) ([1]; SD < 15%): 4.88 × 10^5 sites/cell
Kd ([1]; ~300,000 cells, 0.1-25 nM radiopeptide, 60 min, room temperature, mean ± SD): 10.4 ± 1.71 nM
Radioactivity in Urine + bladder (MDA-MB-231 tumors; 1 h): 66.0 ± 6.60 % injected dose per tissue
Uptake in Blood (MDA-MB-231 tumors; 1 h): 0.70 ± 0.12 % ID/g
Uptake in Intestines (measured without their contents) (MDA-MB-231 tumors; 1 h): 0.89 ± 0.12 % ID/g
Uptake in Kidneys (MDA-MB-231 tumors; 1 h): 4.85 ± 0.43 % ID/g
Uptake in Liver (MDA-MB-231 tumors; 1 h): 2.20 ± 0.33 % ID/g
Uptake in Lungs (MDA-MB-231 tumors; 1 h): 1.86 ± 0.14 % ID/g
Uptake in Muscle (MDA-MB-231 tumors; 1 h): 0.28 ± 0.04 % ID/g
Uptake in Pancreas (MDA-MB-231 tumors; 1 h): 1.30 ± 0.18 % ID/g
Uptake in Spleen (MDA-MB-231 tumors; 1 h): 0.33 ± 0.02 % ID/g
Uptake in Stomach (MDA-MB-231 tumors; 1 h): 0.87 ± 0.11 % ID/g
Radioactivity in Urine + bladder (MDA-MB-231 tumors; 2 h): 68.0 ± 7.55 % injected dose per tissue
Uptake in Blood (MDA-MB-231 tumors; 2 h): 0.60 ± 0.09 % ID/g
Uptake in Intestines (measured without their contents) (MDA-MB-231 tumors; 2 h): 0.50 ± 0.10 % ID/g
Uptake in Kidneys (MDA-MB-231 tumors; 2 h): 3.74 ± 0.24 % ID/g
Uptake in Liver (MDA-MB-231 tumors; 2 h): 1.83 ± 0.24 % ID/g
Uptake in Lungs (MDA-MB-231 tumors; 2 h): 0.61 ± 0.07 % ID/g
Uptake in Muscle (MDA-MB-231 tumors; 2 h): 0.20 ± 0.02 % ID/g
Uptake in Pancreas (MDA-MB-231 tumors; 2 h): 0.75 ± 0.11 % ID/g
Uptake in Spleen (MDA-MB-231 tumors; 2 h): 0.16 ± 0.01 % ID/g
Uptake in Stomach (MDA-MB-231 tumors; 2 h): 0.60 ± 0.07 % ID/g
Uptake in Tumor (MDA-MB-231 tumors; 1 h p.i.): 2.09 ± 0.33 % ID/g
Uptake in Tumor (MDA-MB-231 tumors; 2 h p.i.): 1.62 ± 0.18 % ID/g

— publication PMC6733935, “A convenient and efficient total solid-phase synthesis of DOTA-functionalized tumor-targeting peptides for PET imaging of cancer” (EJNMMI Research, 2019)
